Here are results for one molecule from patent US20230303675A1.

Assay [1] addresses human Ang2 (angiopoietin-2) (human) (UniProt O15123). The assay is described as follows: BLI (Octet), scFv amine-coupled on AR2G biosensor, Ang2 in solution at 50, 40, 30, 20 nM. (BLI is a label-free optical method that tracks binding on a fibre tip over time.)
The target of assay [2] is mouse Ang2 (angiopoietin-2) (mouse) (UniProt O35608). The assay is described as follows: BLI (Octet), scFv amine-coupled on AR2G biosensor, Ang2 in solution.
UniProt O35608, sequence (O35608 19-496 limits assumed): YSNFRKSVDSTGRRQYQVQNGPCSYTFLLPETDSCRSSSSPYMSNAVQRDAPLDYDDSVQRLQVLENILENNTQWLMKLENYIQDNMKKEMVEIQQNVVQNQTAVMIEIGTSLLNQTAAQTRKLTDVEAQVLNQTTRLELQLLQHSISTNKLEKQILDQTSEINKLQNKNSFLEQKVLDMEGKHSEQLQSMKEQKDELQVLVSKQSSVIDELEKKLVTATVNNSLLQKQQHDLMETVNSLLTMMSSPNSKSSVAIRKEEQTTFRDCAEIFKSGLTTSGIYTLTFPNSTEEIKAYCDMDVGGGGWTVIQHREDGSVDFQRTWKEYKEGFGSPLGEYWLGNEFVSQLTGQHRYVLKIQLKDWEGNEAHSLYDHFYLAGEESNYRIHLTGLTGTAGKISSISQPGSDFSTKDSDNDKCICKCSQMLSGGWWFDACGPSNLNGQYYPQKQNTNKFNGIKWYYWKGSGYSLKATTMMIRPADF

UniProt O15123, sequence (O15123 19-496 limits assumed): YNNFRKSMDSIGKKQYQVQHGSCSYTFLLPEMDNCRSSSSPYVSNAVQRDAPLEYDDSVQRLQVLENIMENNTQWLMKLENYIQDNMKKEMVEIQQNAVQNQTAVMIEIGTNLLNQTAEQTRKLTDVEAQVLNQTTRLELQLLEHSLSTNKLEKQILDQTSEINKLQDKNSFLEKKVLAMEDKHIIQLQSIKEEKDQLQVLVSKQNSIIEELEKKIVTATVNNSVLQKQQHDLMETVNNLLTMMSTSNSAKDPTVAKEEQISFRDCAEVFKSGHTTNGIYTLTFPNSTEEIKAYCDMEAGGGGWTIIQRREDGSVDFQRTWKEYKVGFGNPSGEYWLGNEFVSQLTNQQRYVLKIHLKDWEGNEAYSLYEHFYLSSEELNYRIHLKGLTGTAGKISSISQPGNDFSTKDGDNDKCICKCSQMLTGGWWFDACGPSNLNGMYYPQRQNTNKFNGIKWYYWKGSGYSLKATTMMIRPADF

B1: anti-Ang2 antibody clone O4 ScFv with N76S substitution in the light-chain variable region (scFv, part only; not given: Linker, domain order and His tag, V domains shown, not shown: another chain or arm of the molecule; small tags and cut ends)
VH: QVQLVESGGGLVKPGGSLRLSCAASGFTFSSYSMNWVRQAPGKGLEWVSSISASDGATYYADSVRGRFTISRDNSRSTLYLQMNSLRAEDTAVYYCAKTLAGYSGPMGGMDVWGQGTTVTVSS
VL: DIQMTQSPSSLSASVGDRVTITCRASRDISNYLAWYQQKPGKAPKSLIYGASNLQSGVSSQFSGSGSGTDFTLTISSLQPEDSATYYCQQYYSYPLTFGGGTKVDIK
In assay [1], B1 registered an equilibrium dissociation constant (Kd) of 0.313 nM, a koff of 0.000172 s⁻¹ and a kon of 549000 M⁻¹ s⁻¹. In assay [2], the Kd amounted to 0.231 nM, the koff came to 0.000169 s⁻¹ and the kon was 733000 M⁻¹ s⁻¹.

For orientation: Kd means the concentration at which binding is half-saturated. One may read the koff as a measure of how fast the partners let go of each other. What is called kon is the rate constant with which the complex forms. Low readings indicate slower complex formation, high ones faster complex formation.
